T1: His-tagged human TIGIT (human, UniProt Q495A1 22-141)
T1 construct: SPR analyte; also called human TIGIT protein; not shown: His tag
T1 sequence: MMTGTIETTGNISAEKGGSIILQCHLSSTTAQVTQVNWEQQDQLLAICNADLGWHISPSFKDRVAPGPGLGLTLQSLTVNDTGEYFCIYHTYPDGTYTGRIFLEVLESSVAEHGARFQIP


Molecular target: T1, His-tagged human TIGIT
Assay: SPR experiment 1, IgG from HEK293 supernatant captured

Kd	koff	kon	Binder
0.3 nM	0.00014 s⁻¹	470000 M⁻¹ s⁻¹	humanized TIGIT-6 antibody 6VH6 + 6VL1 (antibody, V domains shown, Full-length IgG, tested as HEK293 supernatant) VH: QVQLVQSGAEVKKPGASVKVSCKASGYTITENTMHWVRQAPGQRLEWIGGINPNNGGTSYNQQFKGRATLTVDTSASTAYMELSSLRSEDTAVYYCTRSSYYRYDLDYWGQGTTVTVSS VL: DIQMTQSPSSLSASVGDRVTITCKASQDVKTALAWYQQKPGKAPKLLIYSASYRYTGVPSRFSGSGSGTDFTFTISSLQPEDIATYYCHQHYTTPWTFGGGTKLEIK
0.24 nM	0.00013 s⁻¹	530000 M⁻¹ s⁻¹	humanized TIGIT-6 antibody 6VH6 + 6VL1.M1 (antibody, V domains shown, Full-length IgG, tested as HEK293 supernatant) VH: QVQLVQSGAEVKKPGASVKVSCKASGYTITENTMHWVRQAPGQRLEWIGGINPNNGGTSYNQQFKGRATLTVDTSASTAYMELSSLRSEDTAVYYCTRSSYYRYDLDYWGQGTTVTVSS VL: DIQMTQSPSSLSASVGDRVTITCQASQDIKTALAWYQQKPGKAPKLLIYSASYRYTGVPSRFSGSGSGTDFTFTISSLQPEDIATYYCHQHYTTPWTFGGGTKLEIK
0.35 nM	0.00012 s⁻¹	350000 M⁻¹ s⁻¹	humanized TIGIT-6 antibody 6VH6.M3 + 6VL1 (antibody, V domains shown, Full-length IgG, tested as HEK293 supernatant) VH: QVQLVQSGAEVKKPGASVKVSCKASGYTITENTMHWVRQAPGQRLEWIGGINPNNGGTSYSQKFQGRATLTVDTSASTAYMELSSLRSEDTAVYYCTRSSYYRYDLDYWGQGTTVTVSS VL: DIQMTQSPSSLSASVGDRVTITCKASQDVKTALAWYQQKPGKAPKLLIYSASYRYTGVPSRFSGSGSGTDFTFTISSLQPEDIATYYCHQHYTTPWTFGGGTKLEIK
0.35 nM	0.00011 s⁻¹	310000 M⁻¹ s⁻¹	humanized TIGIT-6 antibody 6VH5 + 6VL1 (antibody, V domains shown, Full-length IgG, tested as HEK293 supernatant) VH: QVQLVQSGAEVKKPGASVKVSCKASGYTITENTMHWVRQAPGQRLEWIGGINPNNGGTSYNQQFKGRATLTRDTSASTAYMELSSLRSEDTAVYYCTRSSYYRYDLDYWGQGTTVTVSS VL: DIQMTQSPSSLSASVGDRVTITCKASQDVKTALAWYQQKPGKAPKLLIYSASYRYTGVPSRFSGSGSGTDFTFTISSLQPEDIATYYCHQHYTTPWTFGGGTKLEIK
0.63 nM	0.00026 s⁻¹	410000 M⁻¹ s⁻¹	humanized TIGIT-6 antibody 6VH6.M1 + 6VL1 (antibody, V domains shown, Full-length IgG, tested as HEK293 supernatant) VH: QVQLVQSGAEVKKPGASVKVSCKASGYTFTENAMHWVRQAPGQRLEWIGGINPNNGGTSYNQQFKGRATLTVDTSASTAYMELSSLRSEDTAVYYCTRSSYYRYDLDYWGQGTTVTVSS VL: DIQMTQSPSSLSASVGDRVTITCKASQDVKTALAWYQQKPGKAPKLLIYSASYRYTGVPSRFSGSGSGTDFTFTISSLQPEDIATYYCHQHYTTPWTFGGGTKLEIK

Molecular target: T1, His-tagged human TIGIT
Assay: SPR experiment 2, IgG from HEK293 supernatant captured

Binder	Kd	koff	kon
humanized TIGIT-19 antibody 19VH4 + 19VL1.M4 (antibody, V domains shown, Full-length IgG, tested as HEK293 supernatant) VH: QVQLVQSGAEVKKPGASVKVSCKASGYAFSRYSMYWVRQAPGQGLEWIAFIDPYNGGSTYNQRFRGKATLTVDTSISTAYMELSRLRSDDTAVYYCARGGDYGWYLGVWGQGTLVTVSS VL: DIQMTQSPSSLSASVGDRVTITCRPSENIYTYLSWYQQKPGKAPKLLIYNAKSLPSGVPSRFSGSGSGTDFTLTISSLQPEDFATYYCQHHYGNPLTFGQGTKVEIK	0.023 nM	2.7e-05 s⁻¹	1.2e+06 M⁻¹ s⁻¹
humanized TIGIT-19 antibody 19VH4 + 19VL1.M6 (antibody, V domains shown, Full-length IgG, tested as HEK293 supernatant) VH: QVQLVQSGAEVKKPGASVKVSCKASGYAFSRYSMYWVRQAPGQGLEWIAFIDPYNGGSTYNQRFRGKATLTVDTSISTAYMELSRLRSDDTAVYYCARGGDYGWYLGVWGQGTLVTVSS VL: DIQMTQSPSSLSASVGDRVTITCRASQNIYSYLSWYQQKPGKAPKLLIYNAKSLPSGVPSRFSGSGSGTDFTLTISSLQPEDFATYYCQHHYGNPLTFGQGTKVEIK	0.15 nM	0.00015 s⁻¹	1e+06 M⁻¹ s⁻¹
humanized TIGIT-19 antibody 19VH4 + 19VL1.M5 (antibody, V domains shown, Full-length IgG, tested as HEK293 supernatant) VH: QVQLVQSGAEVKKPGASVKVSCKASGYAFSRYSMYWVRQAPGQGLEWIAFIDPYNGGSTYNQRFRGKATLTVDTSISTAYMELSRLRSDDTAVYYCARGGDYGWYLGVWGQGTLVTVSS VL: DIQMTQSPSSLSASVGDRVTITCRASQNIYTYLSWYQQKPGKAPKLLIYNAKSLPSGVPSRFSGSGSGTDFTLTISSLQPEDFATYYCQHHYGNPLTFGQGTKVEIK	0.081 nM	8.7e-05 s⁻¹	1.1e+06 M⁻¹ s⁻¹

The remaining lines, values ahead:

Kd	koff	kon	Binder
0.2 nM	0.00021 s⁻¹	1e+06 M⁻¹ s⁻¹	humanized TIGIT-19 antibody 19VH4.M6 + 19VL1 (antibody, V domains shown, Full-length IgG, tested as HEK293 supernatant) VH: QVQLVQSGAEVKKPGASVKVSCKASGYTFTRYSMYWVRQAPGQGLEWIAFIDPYSGGSTYNQRFRGKATLTVDTSISTAYMELSRLRSDDTAVYYCARGGDYGWYLGVWGQGTLVTVSS VL: DIQMTQSPSSLSASVGDRVTITCRPSENIYTYLSWYQQKPGKAPKLLIYNAKTLPEGVPSRFSGSGSGTDFTLTISSLQPEDFATYYCQHHYGNPLTFGQGTKVEIK
0.13 nM	0.00017 s⁻¹	1.3e+06 M⁻¹ s⁻¹	humanized TIGIT-19 antibody 19VH4 + 19VL1.M7 (antibody, V domains shown, Full-length IgG, tested as HEK293 supernatant) VH: QVQLVQSGAEVKKPGASVKVSCKASGYAFSRYSMYWVRQAPGQGLEWIAFIDPYNGGSTYNQRFRGKATLTVDTSISTAYMELSRLRSDDTAVYYCARGGDYGWYLGVWGQGTLVTVSS VL: DIQMTQSPSSLSASVGDRVTITCRASQSIYSYLSWYQQKPGKAPKLLIYNAKSLPSGVPSRFSGSGSGTDFTLTISSLQPEDFATYYCQHHYGNPLTFGQGTKVEIK
0.12 nM	0.00013 s⁻¹	1.1e+06 M⁻¹ s⁻¹	humanized TIGIT-19 antibody 19VH4.M4 + 19VL1 (antibody, V domains shown, Full-length IgG, tested as HEK293 supernatant) VH: QVQLVQSGAEVKKPGASVKVSCKASGYAFSRYSMYWVRQAPGQGLEWIAFIDPYSGGSTYNQRFRGKATLTVDTSISTAYMELSRLRSDDTAVYYCARGGDYGWYLGVWGQGTLVTVSS VL: DIQMTQSPSSLSASVGDRVTITCRPSENIYTYLSWYQQKPGKAPKLLIYNAKTLPEGVPSRFSGSGSGTDFTLTISSLQPEDFATYYCQHHYGNPLTFGQGTKVEIK
0.22 nM	0.00023 s⁻¹	1.1e+06 M⁻¹ s⁻¹	humanized TIGIT-19 antibody 19VH4.M9 + 19VL1 (antibody, V domains shown, Full-length IgG, tested as HEK293 supernatant) VH: QVQLVQSGAEVKKPGASVKVSCKASGYTFTRYSMYWVRQAPGQGLEWIAFIDAYSGGSTYNQRFRGKATLTVDTSISTAYMELSRLRSDDTAVYYCARGGDYGWYLGVWGQGTLVTVSS VL: DIQMTQSPSSLSASVGDRVTITCRPSENIYTYLSWYQQKPGKAPKLLIYNAKTLPEGVPSRFSGSGSGTDFTLTISSLQPEDFATYYCQHHYGNPLTFGQGTKVEIK
0.3 nM	0.00032 s⁻¹	1.1e+06 M⁻¹ s⁻¹	humanized TIGIT-19 antibody 19VH4.M7 + 19VL1 (antibody, V domains shown, Full-length IgG, tested as HEK293 supernatant) VH: QVQLVQSGAEVKKPGASVKVSCKASGYTFTRYSMYWVRQAPGQGLEWIAFIDPYSGGSTYAQKFQGKATLTVDTSISTAYMELSRLRSDDTAVYYCARGGDYGWYLGVWGQGTLVTVSS VL: DIQMTQSPSSLSASVGDRVTITCRPSENIYTYLSWYQQKPGKAPKLLIYNAKTLPEGVPSRFSGSGSGTDFTLTISSLQPEDFATYYCQHHYGNPLTFGQGTKVEIK
0.16 nM	0.0002 s⁻¹	1.3e+06 M⁻¹ s⁻¹	humanized TIGIT-19 antibody 19VH4.M5 + 19VL1 (antibody, V domains shown, Full-length IgG, tested as HEK293 supernatant) VH: QVQLVQSGAEVKKPGASVKVSCKASGYAFSRYSMYWVRQAPGQGLEWIAFIDPYNGGSTYAQKFQGKATLTVDTSISTAYMELSRLRSDDTAVYYCARGGDYGWYLGVWGQGTLVTVSS VL: DIQMTQSPSSLSASVGDRVTITCRPSENIYTYLSWYQQKPGKAPKLLIYNAKTLPEGVPSRFSGSGSGTDFTLTISSLQPEDFATYYCQHHYGNPLTFGQGTKVEIK
